The data set in a line: label from the status in PepcDB records.
“MSQLTFWFGCALVALIAEFVSGTFYLLMVALALACGGFAAWLGAPEPWQWLIASVSGAVGLLAIHRRRRSLMPPPPPQDDPDWGQQVEIRALTTPGHARIHYRGAEWDALLMDSRLDAGSTGYISGREGNLFKISSQQPQ”: the protein production entry is on record as “failed”.

“MSQMSPGQARVVDPILSTHARGYRQSTLIGKKLFPVAPVAQYGGKILTFGKEAFRLYNTKRAPGANTKRIDFGYEGDPYSIVPSALEAKVPRELMRDASQVPGIDLGARSVNTVLRIMALAHEHECAQIALDPAKYNADHKVKLVGSARWTSPDSDPTKDVETAKEAIADSIGMEPNRLMLSRKALSACKYHPKLIERVKYTRAESITIDMLKALWEVEEIVVGTARVATGANDSFGDVWGPDVWLGYVSDNPDPSVEEPSFGYTYQIEGHPLVEVPYWDNNAKSWIYGVSDDNTPALSGMLAGYLIEDAGLPAALEHHHHHH”: the protein production entry is listed as “not failed”.

Regarding “MSQPLNVAVVGATGSVGEALVGLLDERDFPLHRLHLLASAESAGQRMGFAESSLRVGDVDSFDFSSVGLAFFAAAAEVSRAHAERARAAGCSVIDLSGALEPSVAPPVMVSVNAERLASQAAPFLLSSPCAVAAELCEVLAPLLATLDCRQLNLTACLSVSSLGREGVKELARQTAELLNARPLEPRLFDRQIAFNLLAQVGAVDAEGHSAIERRIFAEVQALLGERIGPLNVTCIQAPVFFGDSLSVTLQCAEPVDLAAVTRVLDATKGIEWVGEGDYPTVVGDALGQDETYVGRVRAGQADPCQVNLWIVSDNVRKGAALNAVLLGELLIKHYL”, the protein production entry is recorded as “not failed”.

Turning to “MSQPRNRWIVQLILALAVLAFVGVSVVPIIGALNDNTSPSNQNSASNQGDSLASNQQSKLADEVRGYELVLQREPENQTALKGLLQARLQLLALKQGNVQSVIEPLEKLAKLNPNQSEYGVLLAQAKQQIGDKEGAATAYRSILDTKPGDLKALQGMVVLLLDQQRPEAAVGLLQDTLTNAAQANTIQPGSVDVVAVQVLLGNVHAAQKRYPQAISAFDQAIQKDTKDFRPVLAKAMLLKQQGKATEAKPLFDSALALAPAQYKDEINKAATVSPAPAPPAPPAPTPESTPKQ”, the protein production entry is listed as “failed”.

In the case of “MSQQQKQYDIHWLTGQFFDSSKESRYRDSIKARVRFESRLALPLVSVVVAMFGITDYNLLGLTREFYWLLTMRIAVVSSCLVLAFAIGRWGGYSRNAWLHSLPLWILATGIILIVPLRPESISTQITAVVVAIMAFYLLIPNLLTVAALASLYLTVGFLSAAAVYAGIPSENVLRVSLLLIMANIVGYCALLRIEFLQRKQFALLQDERDQNRDLLKEIKHRKSLEAQLRMVAERDALTGLDSRSHFMKRAEALLQRAQLEKTPFCLFMIDVDHFKRINDTWGHTRGDLILTKIAEVCEQSLRPTDVIGRFGGEEFVVGLPHTSPSEAQTIAERLKENVEALPLTAELSELCLSVTIGIAAAHGEEDDLDVLITRADNMLYEGKREGRNRVVMFGEGMDS”, the protein production entry is reported as “failed”.

As for “MSQRVSPTLIGLFVVGALALGVVGVGAFGSGQFFEQRTTFISYFDESVNGLDVGAPVKFKGVPIGEVTDINLRVDLENETFQVPVQYAINLDPVTDTTGARLNLDDPTLLRDQIEDGLRAQLQLESIVTGKLYVELTYISDPDSAVYAQGPPSRLSIPTELSPLAKLGEGASGLVTNLRQFDVTQINENLVTFLVNANDKLEALDAEAINRSALSTIESVRKVVESKEVRTALQDMPKATERLRATIKDAQALIQRLDRGVEPTADELEKTSRQLRATLKRMRRTMDEVDQTLSPNSGIGYQMNEALSNLSEATEALRVLVQSLERNPSMFLRGREEPPPSNQQ”, the protein production entry is given as “failed”.

As for “MSQTDELTGTANRRFVFAKLALQVEQVSKGLEAPFCLCTLDIDFFKQINDRFGHKCGDAVLRDFVGIAHSVIRRVDCFGRIGGEEFMLILPRSSIAEGREIVERLLQKVRLSRPLSEFPDFSYSCSAGMTVFRMMENADDVFMRADQALYAAKEKGRDRLLAVTLEHHHHHH”, the protein production entry is recorded as “failed”.

As to “MSQTTVVNGVNVDQLMATIEQIKAKPEIAQFKFRATNQWMGGTHNQATIKDFYGACAEDDTRKPMVFDLDEPPVLLGENRGANPVEYLLVALSGCLTTSLVAHAAARGIALRGVKSRYEGDIDLRGFLGLSEEVPVGYREIRVFFSIDADLTDGQKEELIRMAQKYSPVYNTVAKPVPVAVLLDRG”, the protein production result is on record as “not failed”.

Take “MSQWITEWIPQVMNQLGYGGISLLMFLENLFPPIPSELIMPLAGFAVAQGKLELFPAIVAGIIGTILGAYPWYYIGKWVSEERLEQLADRYGKWIGLDAKDIHKSNVWFGRYGHQSVFFGRLVPGIRTIVSLPAGVNAMGLISFTLYSLGGISLWVTFLASAGYKLGDHYELVEQYLGPVSKIVLVSIVAILVLLIVRKQLRRRA”: the protein production result is reported as “failed”.

For the sequence “MSQYQRLLLIADPQQHQSPAARRAVALARASGAALHALVFVEPPARTYLWEEHLEDSEREAYLQRHERWLQVEAQWMAEEGVQVTTQVIWSTQVLKDMLAYIDEFRPDLLIKDVTLESALKRVFVTPLDCHLLREAPVPVHLVNDAPHKLPRRIVAAVDPAQSDTQIRGLNTQIIQTAHALALQCDAQLHLLYAYDLMPMLDGVAPVASTAWSVNCLDELRDSLHKEFERLGDEHNVPQEFRHFIMGPPVPGIAQFVDEYLVDVVVMGTVHRTGFGRLIGSTTERALYSMPGSILAVKASGAA”, the protein production entry is reported as “failed”.

Turning to “MSRAEKSTAEQSGHIQHGVRKAAGVVFMVFGTMCFASKSIFVKWAYEQGAQPEAVLLYRQLFAAPLFWLIFIVYRSKLPAKPEKAEIFKACAAGLLCFFLSPLLDFIGLHGVSATVERMIVMSYPMFVLIITAFVNKKMVSGKTFAAILLVNAGLFLAVGGWDVQALEANLSGAFLILLSAVAYAAYLVVAGGLVRQIGGIRMNAYGMSAASLAMAGYALLRSLREQPGIVLSYPPAMYGFFMIIAAVTTVIPFLFMLEGMKRIGAERGAVISMIGPVLTIFGGVLFLNERLTPVQWLGCLLVHLTVSLLEYRK”, the protein production result is recorded as “failed”.

On to “MSRDPILSLPWPDARPLPDTFFDRDALLVARELLGKVIRHRQGNLWLAARIIETEAYYLEEKGSHASLGYTEKRKALFLDGGHIYMYYARGGDSLNFSAGGPGNAVLIKSGHPWLDRISDHTALERMQSLNPDSQGRPREIGRLCAGQTLLCKAMGLKVPEWDAQRFDPQRLFVDDVGERPSQVIQAARLGIPKGRDEHLPYRFVDAAFAAFCTRNPLRRGQVAGRDYHLLGHQDPHLQ”, for which the protein production entry is reported as “failed”.

In the case of “MSRDTERYPVKHANSLWQIYKTVPFWKVVKNFVVIQLARYTPFVSVKNWLYRTFLKMDVGEKTAFALMVMPDIMFPERISVGRNSIIGYNTTILAHEYLIEEYRLGDVIIGDEVMVGANTTILPGVTIGDRAIIAAGTVVHKNVPPGAFVGGNPMQVIKQLEHHHHHH”, the protein production entry was “failed”.

Regarding “MSREDELLEKLDECENATAFLQVSNKIINLKLKALLPSVFVQDDLVKEYAVDPLLREDGPLVTTDVVSKLMFAMGKISLQTYADIGLYDQVLEYVVTQPEKIAFTDDVIYDFIKNQAVLSSQQDCFYLESINQLKFSSFESFSQMRYESLIKTVLKLSCEMLIERIEEEINQ”, the protein production entry is given as “not failed”.

As to “MSRGLLEACIEFIRETPAGDALRIVAYEFTFKRILLELKAALERGVDVRIVYHATTANEKAIADAKLPENSKGVQILFKRTRPQTPHNKFIVRLKKGKTPVSVWTGSTNFTPSGFLGQTNVGHKVTDGDIAKIYLQLWEGLKADPDDFDATQLEHHHHHH”, the protein production result was “not failed”.

Consider “MSRKVILTCAVTGNAPFNPKHPSMPITPAQIADACVEAAKAGASVAHIHVRDPKTGGGSRDPVLFKEVVDRVRSSGTDIVLNLTCGLGAFLLPDPEDESKALPESDVVPVAERVKHLEDCLPEIASLDITTGNQVEGKLEFVYLNTTRTLRAMARRFQELGIKPELEVFSPGDILFGKQLIEEGLIDGVPLFQMVLGVLWGAPASTETMIYQRNLIPANAQWAAFGIGRDQMPMMAQAALLGGNVRVGLEDNLYLSRGVFATNGQLVERARTVIEHLGMSVATPDEARDIMGLSRPA”, for which the protein production entry is listed as “not failed”.

In the case of “MSRLFHQRGNVMPIHVITALPGGGKTAIMVEMLEAEAKIGARPLFAAGIDGLQPGLATVLDDPSQWNAKDAHGNYVVPDGSLVFVDEAWKWFGMKYGGSGMRQTTPDHVRALAEHRHRGLDFVWTTQQAHKQLYSFVHGLIGRHTFIKRRFGTRFLDVWEWDEMVENVNSASNREFSRHQVRTLPKHVYSLYKSAEIHT”, the protein production entry is recorded as “failed”.

Turning to “MSRMMKMGTGTLRVILWFASILIWFSIFVPIEYLVNYFSGETTNYILHSDDFMMPIKTHVASTNAIASFPSGLYTTLMIIGYILMLVGVFITIQAVSAIVRHIQEQDYFSTENSQQMNRIVKGQIWILGSSLLMACANQLTVSWLYRISQFGLGWDNLLSAFVDLIIFALIAMIYTRAVNMKTESDLTI”, the protein production result is “failed”.

Consider “MSRNHLPFSAGELEALPLFRFVPLECIEGILEHSCVVSLERGERFEPAGPLGRTIHLILDGRLALYYDVRERDDTPLHLERGDIVGQSLVSGEPEVPCTLVAAEETRLMILEEDLIWSLAQASHAAACNLLGILLRGRGGSPQESFSGTVRDYALRNQAVVDPLTGFQSRRWLEGILSRQVDRFTANGRPLSLVMIDIDGFRAFNERHGRAGGDRALHDVAKTLRNSLRPGELVARYGGDTFAVLLPETEPSTAWMIADRLRQRLMRTVIDMGDGAMLPPLSISAGVAEATPGIDGPTIADNALAALDRAKAAGGNTVSR”, for which the protein production result is “failed”.

As for “MSRPRLELGTWGKITRTEVAEGKHRARARFRDFTGKTRQVEAYGASGAKAERQLLANLRSRVESAGDTISGNTTVSSLGKIWTGNLGKSDEHTEQTIERYESIVEKIIGPALGEYLIMEATVSRVDGFLRALADKTPGRAKTTKSVLKSMFDLAVRHDALRTNPVREVRLPTKRKKPVQALTIDEVGTLREGLRKWQAADGVKGPTRSTELLDVVDLMLGTGMRIGEVLALRWSDVDLGEHPRLTVSGTLVPIKEKGLRRQAHTKTASGFRVLTLPAFVVEVLLRRSVESIPTETNAVFPSGAGTWKWPNNYRRALRAALKEMENTSGITPHVFRKSVATLIDAEATLEAAAAVLGHSGTGVTSAHYVAKAATAPDMSSILDQFGGNRIQKDG”, the protein production entry was “failed”.

As to “MSRPTVSVIIPTHNRAKLLKRAIISVLNQTFEDFEIIVVDDASSDNTPNIIESIKDSRIRYIRLEKNSGAPTARNIGIKKARGKFIALLDDDDEWLPRKLEVQVKKFNELEKKFGVVYGGFYYVSQQNERIIGKRLPRFRGNVYGELLKENFIGSPTVLIRRECFKKAGLFDPKLPSSQDWDMWVRIARYYYFDYIVAKYYVHGHQISFNINEKYIPGREIFISKHKDIANNPKILSMHLTQMGLLSILGGNIEKGVKYLAQSITISPLNIDSYKKVIELTLDSRFLEYVKNILHANYLEHHHHHH”, the protein production result is “failed”.

“MSRRGLEREGGKPVSSDAKGLKRVDVRLKWDPSPWDRPPHHLDIIATTYAADAPHGRPVYVVQFDKRSPDGTINMSRHSRTGQGFGFVEEMTFELDRLSPSIARVIVGVAIHQDNGHKTFDDVSNTGVVVAEGYRELLTDGFERVAGATAATVAEFTRNASGAWEFREAVRGFDSDPVLFATEMGSAPRP”: the protein production entry was “not failed”.

In the case of “MSRRRMSESLPPGVQVDPAAIEQLVGRPVDDLSHYRRALTHRSLLRVHPARTFRSNERLEFLGDALLDVFVGEVLYDRFPEKDEGALTRLRARLVSERPLATYARGLGLGPHLLMSENAAEGDGRDNPSILADAFEAFVGAVYLDLGHEAARGFVQDRVLAPVDLEDVATRDDNYKSQLLEHLQALGRPQPTYHVVEEKGPSHDKTFTVEVRVGDAAYERGTAGSKQDAEQQAARRTLDEMASDPPAS”, the protein production result is recorded as “failed”.

Take “MSRSFFAVLRDGKRYADKWPHHSVVAAMAESRIIPITRKAISWTPGIAVLNAALTWQFMPQEQLAPGLMLSLIMLSLPLQGLYWLGWRSRQPLKPMLRNWYKELRDKLRKQGVECQPQGEKGPEYMDLAIILRKALETLPPEEH”: the protein production result is “failed”.

The values above are taken from a protein production outcome set (Wang et al. 2014).
